Experimental findings from PMC4942678, “A Salmonella Toxin Promotes Persister Formation through Acetylation of tRNA” (Molecular Cell, 2016) are described below.

Series [1] deals with the molecule itself. Briefly: crystal structure; T8^Y140F with Ac-CoA bound, 1.7 Å, space group P2_(1); a dimer in the asymmetric unit.
Series [2] concerns the molecule itself. Briefly: SEC-MALS; size-exclusion chromatography with multi-angle laser light scattering (SEC-MALLS), in solution. Background: Size exclusion chromatography separates by hydrodynamic size, large species first.

B1: TacT^Y140F (tRNA-acetylating toxin, Y140F mutant) (enzyme)
chain: MGRVTAPEPLSAFHQVAEFVSGEAVLDDWLKQKGLKNQALGAARTFVVCKKDTKQVAGFYSLATGSVNHTEATGNLRRNMPDPIPVIILARLAVDLSFHGKGLGADLLHDAVLRCYRVAENIGVRAIMVHALTEEAKNFFIHHGFKSSQTQQRTLFLRLPQ
notes: also called T8^Y140F; source: purified; produced in the absence of its antitoxin A8 (E. coli expression strain BL21)
For B1, in series [1], the binding result was “binds”.

B2: TacT (tRNA-acetylating toxin), wild type (enzyme)
chain: MGRVTAPEPLSAFHQVAEFVSGEAVLDDWLKQKGLKNQALGAARTFVVCKKDTKQVAGFYSLATGSVNHTEATGNLRRNMPDPIPVIILARLAVDLSFHGKGLGADLLHDAVLRCYRVAENIGVRAIMVHALTEEAKNFYIHHGFKSSQTQQRTLFLRLPQ
notes: also called T8; the toxin
Usually stoichiometry N stands for the number of molecules, sites or subunits per partner or assembly. Turning to B2, the “stoichiometry N” value in series [2] amounted to 2.
